Positions count from the first letter of the chain named.
How the values were obtained:
[1] = biological target: T1, flag-tagged Gli1S84E (human, UniProt P08151 1-1106); experiment: IP-Western, flag-tagged Gli1S84E transfected into BE3 cells
T1 construct: not shown: flag tag from vector p3flag-CMV10
T1 sequence (looked up): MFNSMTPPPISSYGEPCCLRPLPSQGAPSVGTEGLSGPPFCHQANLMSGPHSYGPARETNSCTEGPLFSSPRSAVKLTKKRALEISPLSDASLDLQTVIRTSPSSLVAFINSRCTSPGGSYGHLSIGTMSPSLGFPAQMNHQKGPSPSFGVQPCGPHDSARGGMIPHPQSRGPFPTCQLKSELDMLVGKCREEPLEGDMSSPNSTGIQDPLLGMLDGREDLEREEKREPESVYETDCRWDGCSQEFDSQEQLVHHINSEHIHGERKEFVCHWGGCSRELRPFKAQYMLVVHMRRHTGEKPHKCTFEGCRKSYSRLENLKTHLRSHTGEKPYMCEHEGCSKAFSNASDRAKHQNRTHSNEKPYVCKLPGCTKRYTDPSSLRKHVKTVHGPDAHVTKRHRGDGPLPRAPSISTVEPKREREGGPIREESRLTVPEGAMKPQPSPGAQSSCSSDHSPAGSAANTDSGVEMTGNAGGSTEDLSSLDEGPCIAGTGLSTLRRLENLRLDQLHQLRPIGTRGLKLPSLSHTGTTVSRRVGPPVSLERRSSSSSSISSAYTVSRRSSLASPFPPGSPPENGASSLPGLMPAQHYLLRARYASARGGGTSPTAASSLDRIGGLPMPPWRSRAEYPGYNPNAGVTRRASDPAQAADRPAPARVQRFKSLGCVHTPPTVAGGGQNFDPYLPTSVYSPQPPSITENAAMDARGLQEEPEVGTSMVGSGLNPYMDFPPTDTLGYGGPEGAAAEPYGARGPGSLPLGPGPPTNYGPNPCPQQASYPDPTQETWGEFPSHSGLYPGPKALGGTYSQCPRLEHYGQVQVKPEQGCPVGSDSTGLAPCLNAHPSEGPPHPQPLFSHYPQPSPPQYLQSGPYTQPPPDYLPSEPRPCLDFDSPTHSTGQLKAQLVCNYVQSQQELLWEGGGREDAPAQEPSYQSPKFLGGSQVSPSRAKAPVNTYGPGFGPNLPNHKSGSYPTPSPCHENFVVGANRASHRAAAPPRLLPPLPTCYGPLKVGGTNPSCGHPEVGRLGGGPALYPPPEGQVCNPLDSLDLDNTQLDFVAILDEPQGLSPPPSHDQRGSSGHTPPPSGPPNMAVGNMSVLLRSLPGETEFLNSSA
Method: (§1) FIGS. 13A-13K. related to FIG. 5. […] FIG. 13A. Luciferase assay of Gli reporter in the stable clones treated by TNFα alone (5 ng/mL) or TNFα plus rapamycin (100 nM). Error bars represent SD (n=3). FIG. 13B. Gli1 immunofluorescence staining in several BE3 stable clones with TNFα treatment. Scale bar=100 μm for original picture and 25 μm for inset. FIG. 13C. The regulation of p-Gli1 by TNFα alone or together with rapamycin (10, 50, and 100 nM) in the BE3 stable clone. FIG. 13D. MTT assay of the various Gli1 stable clones. All cells were counted, and then 3,000 cells were seeded in each well of a 96-well plate. Error bars represent SD (n=3). FIG. 13E. Soft-agar assay of the various Gli1 stable clones. All cells were counted, and then 1,000 cells were mixed with agarose for each well of a 24-well plate. Left, representative microscopic images. Right, quantitation of colony formation. Error bars represent SD (n=3). FIG. 13F. Invasion assay of the various Gli1 stable clones. All cells were counted, and then 1,000 cells were seeded on matrigel in transwells. Left, representative microscopic images from the bottom side of transwell membranes. Right, quantitation of invasive cells. Error bars represent SD (n=3). FIGS. 13G-13I. The assays of MTT (G), soft agar (H), and invasion (I) using the BE3 stable clones treated with TNFα.

[2] = biological target: T2, flag-tagged Gli1S84A (human, UniProt P08151 1-1106); experiment: IP-Western, flag-tagged Gli1S84A transfected into BE3 cells
T2 construct: also called flag-Gli1S84A; not shown: flag tag from vector p3flag-CMV10
T2 sequence (looked up): T1 sequence (looked up) with E84A
Method: as §1

binding result [1]: binds
binding result [2]: binds
B1: SuFu (other, human, UniProt Q9UMX1 1-484, looked up)
chain: MAELRPSGAPGPTAPPAPGPTAPPAFASLFPPGLHAIYGECRRLYPDQPNPLQVTAIVKYWLGGPDPLDYVSMYRNVGSPSANIPEHWHYISFGLSDLYGDNRVHEFTGTDGPSGFGFELTFRLKRETGESAPPTWPAELMQGLARYVFQSENTFCSGDHVSWHSPLDNSESRIQHMLLTEDPQMQPVQTPFGVVTFLQIVGVCTEELHSAQQWNGQGILELLRTVPIAGGPWLITDMRRGETIFEIDPHLQERVDKGIETDGSNLSGVSAKCAWDDLSRPPEDDEDSRSICIGTQPRRLSGKDTEQIRETLRRGLEINSKPVLPPINPQRQNGLAHDRAPSRKDSLESDSSTAIIPHELIRTRQLESVHLKFNQESGALIPLCLRGRLLHGRHFTYKSITGDMAITFVSTGVEGAFATEEHPYAAHGPWLQILLTEEFVEKMLEDLEDLTSPEEFKLPKEYSWPEKKLKVSILPDVVFDSPLH
notes: also called suppressor of fused
